B1: Chaperone protein IpgC (Shigella flexneri), P0A2U4 (parent)
chain: MSLNITENESISTAVIDAINSGATLKDINAIPDDMMDDIYSYAYDFYNKGRIEEAEVFFRFLCIYDFYNVDYIMGLAAIYQIKEQFQQAADLYAVAFALGKNDYTPVFHTGQCQLRLKAPLKAKECFELVIQHSNDEKLKIKAQSYLDAIQDIKE
partner: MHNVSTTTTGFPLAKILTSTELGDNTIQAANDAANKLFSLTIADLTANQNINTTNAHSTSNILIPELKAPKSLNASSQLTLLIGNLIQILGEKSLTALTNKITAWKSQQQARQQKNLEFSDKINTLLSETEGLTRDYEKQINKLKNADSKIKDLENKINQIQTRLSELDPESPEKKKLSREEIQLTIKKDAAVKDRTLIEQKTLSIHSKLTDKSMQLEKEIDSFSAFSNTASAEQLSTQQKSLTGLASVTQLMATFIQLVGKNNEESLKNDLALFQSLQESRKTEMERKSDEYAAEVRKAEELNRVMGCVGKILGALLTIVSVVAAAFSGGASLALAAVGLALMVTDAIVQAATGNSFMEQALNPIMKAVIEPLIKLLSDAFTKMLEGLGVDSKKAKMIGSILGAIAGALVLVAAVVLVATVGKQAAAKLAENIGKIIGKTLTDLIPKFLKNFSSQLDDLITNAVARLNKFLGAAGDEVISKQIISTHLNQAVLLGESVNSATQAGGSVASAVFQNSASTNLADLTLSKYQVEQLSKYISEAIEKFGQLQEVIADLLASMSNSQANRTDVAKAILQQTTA
B2: Type 3 secretion system translocon protein SctE (Shigella flexneri), P18011 (parent)
chain: B1 partner

Variants of: B1
Conditions: with scte_shifl sctE
In the case of S41M;Y44G;G75Q;A78M, the “effect of a mutation on the interaction” value is reported as “disrupting interaction strength”.

Variants of: B2
Conditions: with ipgc_shifl ipgC
For L67N, the “effect of a mutation on the interaction” value was “disrupting interaction strength”.
For P65R, the “effect of a mutation on the interaction” value was “disrupting interaction strength”.
P70D was tested, and the “effect of a mutation on the interaction” value was “disrupting interaction strength”.
K68A was tested, and the “effect of a mutation on the interaction” value was “decreasing interaction strength”.

From IntAct's records for PubMed 19478065
